From patent publication US20250222125A1, “Anti-FGFR2b Antibodies, Conjugates and Methods of Use” (BeiGene, Ltd., priority 2024, published 2025)

B1: BGAm1823: parental murine anti-FGFR2b antibody; VH SEQ ID NO: 28, VL SEQ ID NO: 30 (antibody, V domains shown)
VH: EVQLQQSGAELVKPGASVKISCKASGYAFSIYWMNWVKQRPGKGLEWIGQIYPENGDTNYNGKFKGKATLTADKSSSTAYMHLSSLTSEDSAVYFCARGGFDYWGQGTTLTVSS
VL: NIVMTQSPASLSASVGETVTITCRASENIYSNLAWYQQKQGKSPQLLVYTATNLADGVPSRFSGSGSGTQFSLKINSLQPEDFGSYYCQHFYGILYTFGSGTRLEIK
modifications: Synthetic: VH AA; Synthetic: VL AA
B2: BGAh9239: humanized anti-FGFR2b IgG1 antibody from murine BGAm1823; VH SEQ ID NO: 9, VL SEQ ID NO: 10 (antibody, V domains shown)
VH: QVQLVQSGAEVKKPGSSVKVSCKASGYTFSIYWLNWVRQAPGQGLEWMGQIYPENADTNYSGKFKGRVTITADKSTSTAYMELSSLRSEDTAVYFCARGGFDYWGQGTLVTVSS
VL: DIQMTQSPSSLSASVGDRVTITCRASENIYSNLAWYQQKPGKAPKLLIYTATNLAEGVPSRFSGSGSGTDFTLTISSLQPEDFATYYCQHFYGILYTFGQGTRLEIK
modifications: Synthetic: VH AA; Synthetic: VL AA

Assays:
Mouse FGFR2b = biological target: T1, Mouse FGFR2b (Mus musculus, UniProt P21803); test: FACS binding on Expi293 cells, mouse FGFR2b (Example 10); conditions: Expi293 cells overexpressing mouse FGFR2b
T1 construct: expressed in transfected cells; host or cells: Expi293
Procedure: (§1) To evaluate the binding activity of anti-FGFR2b antibodies to native FGFR2b on living cells, Expi293 cells were engineered to overexpress human FGFR2b, cyno FGFR2b, mouse FGFR2b, or human FGFR2c. Expi293 cells expressing antigens were seeded in 96-well plates, and were incubated with serially diluted anti-FGFR2b antibodies. Goat anti-human IgG [Alexa Fluor® 647] […] The change of mean fluorescent intensity (MFI) of humanized candidates BGAh9239 and BGAh9179 was measured by flow cytometry. EC50 values for dose-dependent binding to native human FGFR2b, cyno FGFR2b, mouse FGFR2b, and human FGFR2c were determined using sigmoidal dose-response curves of nonlinear fit from GraphPad Prism™.

human FGFR2b [1] = biological target: T2, human FGFR2b (Homo sapiens, UniProt P21802); test: SPR affinity determination, human FGFR2b (Example 9); assay type: binding; conditions: for Kd: kd/ka
Procedure: (§2) For affinity determination, antibodies were captured by anti-human Fc antibodies, and used in the affinity assay based on surface plasmon resonance (SPR) technology. SPR signals were analyzed to calculate the association rates (ka) and dissociation rates (kd) by using the one-to-one Langmuir binding model (BIA Evaluation Software, GE Life Sciences). The equilibrium dissociation constant (KD) was calculated as the ratio of kd/ka. Rmax represents the maximal feasible SPR signal generated by an interaction between a ligand-analyte pair and is represented in response units (RU). BGAh9239 and BGA9179 show similar binding profiles to human FGFR2b and cyno FGFR2b, and are similar to their parental antibodies BGAm1823 and BGAm1371, respectively.

Cyno FGFR2b [2] = test: ELISA binding to recombinant cyno FGFR2b (Example 11)
human FGFR2b [3] = biological target: T2, human FGFR2b; test: FACS binding to native FGFR2b on Expi293 cells, human FGFR2b (Example 10); conditions: Expi293 cells overexpressing human FGFR2b
Procedure: as §1

BaF3_hFGFR2b OE cells = test: Ligand-induced proliferation inhibition assay in BaF3_hFGFR2b OE cells; assay type: cell-based; conditions: antibody 10 μg/ml, heparin 5 μg/ml, 72 hours
Procedure: The inhibition activity of antibody on ligand-induced cell proliferation was evaluated in an FGFR2b engineered BaF3 cell line system (BaF3_hFGFR2b OE). BaF3 cells are dependent on interleukin-3 (IL-3) for growth. The BaF3 system allows for testing of kinases and kinase inhibitors. Some protein kinases can render BaF3 cells to be independent of IL-3, whereas kinase inhibitors antagonize this effect. Cells were seeded in 96-well plates at 30,000 cells/well in RPMI-1640 medium containing 10% fetal bovine serum. Anti-FGFR2b antibodies at a concentration of 10 μg/ml were added to the assay plates. Recombinant human FGF7 or FGF10 protein (40 ng/ml) in the presence of heparin (5 μg/ml) was added to the assay plates. The plates were incubated at 37° C., 5% CO2, 95% humidity in an incubator for 72 hours. Following incubation, 50 μl Cell Titer Glo reagent was added to each well and the plates were mixed for 1 min and then incubated at RT for 10 min. Luminescence signals were detected and recorded.
The Ba/F3 system is used to investigate downstream oncogenic signaling pathways and the susceptibility of driver variants to therapeutics. Driver-addicted Ba/F3 cells die when the driver-engaged signaling pathway is inhibited, and this effect can be rescued by re-introduction of […].
FIGS. 6 and 7 show the results of Ba/F3 proliferation assays. The net growth on Ba/F3 cells overexpressing FGFR2b is reported after treatment with anti-FGFR2b antibodies of the present disclosure. Normal Ba/F3 cells die shortly after withdrawal of exogenous […]. […] Comparator BGA2311 binds at the N-terminus and is not considered to be a ligand blocker. Thus, BGAm1371 may partially block the FGFR2b signaling pathway, such as the signaling pathway mediated by FGF7.

human FGFR2b [4] = biological target: T2, human FGFR2b; test: ELISA binding to recombinant human FGFR2b (Example 11)
[5] = tested on: phosphorylated FGFR in SNU-16 cells; test: Inhibition of FGFR2 signaling in SNU-16 cells (Western blot of pFGFR); assay type: cell-based; conditions: antibody 10 μg/ml, 2 hours
Procedure: Inhibition of the FGFR2 signaling pathway by the humanized antibodies was investigated. SNU-16 cells were grown in RPMI-1640 medium with 10% FBS, collected and washed twice with free medium and then seeded in 12-well plates at 1.5E6 cells/well in serum-free RPMI-1640. The plates were incubated at 37° C., 5% CO2, and 95% humidity in an incubator overnight. Anti-FGFR2b antibodies at a concentration of 10 μg/ml were added to the assay plates. Recombinant human FGF7 or FGF10 protein (10 ng/ml) in the presence of heparin (5 μg/ml) was added to the assay plates. The plates were incubated in a 37° C., 5% CO2, 95% humidity incubator for 2 hours. Following 2 hours incubation, cells were collected and washed twice with cold PBS. NP40 lysis buffer containing 1×PMSF and 1× Protease plus phosphatase inhibitors were added to the cell pellets. The mixture was pipetted up and down to suspend the pellet. The mixture was inverted gently and each placed for 10 minutes on ice, for a total of 30 minutes. The mixture was centrifuged at 12000× rpm for 10 minutes to pellet the cell debris. The supernatant was transferred to a new tube to quantify total protein concentration by BCA Kit. The protein samples were then split and stored at −80° C. for further Western blotting to detect the expression of pFGFR and total FGFR2.
Western blotting procedure: The completely thawed protein samples were mixed with 4×SDS loading buffer and were heated for 10 min at 37° C. Then the mixtures were centrifuged at ˜3500×rpm for 5 min. Equal amounts of proteins were loaded into an SDS-PAGE gel, whereafter proteins were transferred to PVDF membranes using iBlot. The membranes were then subjected to Western blotting analysis, focusing on phosphorylated FGFR and total FGFR2.

Human FGFR2c [6] = biological target: T3, Human FGFR2c (Homo sapiens, UniProt P21802); test: ELISA binding to recombinant human FGFR2c (Example 11); conditions: for Emax (A450): human FGFR2c; for binding to human FGFR2c: in words
Cyno FGFR2b [7] = test: SPR affinity determination, cyno FGFR2b (Example 9); assay type: binding
Procedure: as §2

Human FGFR2c [8] = biological target: T3, Human FGFR2c; test: FACS binding on Expi293 cells, human FGFR2c (Example 10); conditions: for Emax (MFI): Expi293 cells overexpressing human FGFR2c
Procedure: as §1

Human FGFR2c OE cells = Human FGFR2c OE cells (Homo sapiens, UniProt P21802); test: FACS cellular binding, human FGFR2c OE cells (Example 4)
Procedure: (§3) The binding affinity and specificity of purified anti-FGFR2b antibodies were determined by ELISA and FACS. […] After incubation and washing, the plates were developed with HRP substrate and absorbance was measured. […] After washing twice with FACS buffer, diluted Alexa Fluor 647 goat anti-human IgG secondary antibody was added and incubated with cells for 30 minutes at 4° C. in the dark. After washing twice with FACS buffer, cells were resuspended with FACS buffer and read using a Becton Dickinson LSR FortessaTM cell analyzer. Non-specific binding of these antibodies was evaluated by FACS binding against parental 293T blank cells. Titration curves were generated using a sigmoidal dose-response of nonlinear fit from GraphPadTM Software by Dotmatics.

Human FGFR2c [9] = biological target: T3, Human FGFR2c; test: ELISA protein binding to human FGFR2c (Example 4); conditions: coated protein
Procedure: as §3

human FGFR2b [10] = biological target: T2, human FGFR2b; test: ELISA protein binding to human FGFR2b (Example 4); conditions: coated protein
Procedure: as §3

293T blank cells = test: FACS non-specific binding, parental 293T blank cells (Example 4)
Procedure: as §3

Human FGFR2b OE cells = biological target: T4, Human FGFR2b OE cells (Homo sapiens, UniProt P21802); test: FACS cellular binding, human FGFR2b OE cells (Example 4)
T4 construct: expressed in transfected cells; host or cells: 293T
Procedure: as §3

[11] = biological target: T5, soluble human FGFR2b proteins (Homo sapiens, UniProt P21802); test: SPR binding kinetics (Biacore 8K, Example 5); conditions: room temperature
T5 construct: soluble human FGFR2b proteins (his tag, in-house generated); His tag; made in house
Procedure: The binding affinity and kinetics of purified anti-FGFR2b antibodies were determined by surface plasmon resonance (Biacore 8K, GE Life Sciences) at room temperature. Briefly, mouse anti-human IgG Fc antibody was immobilized via amine coupling onto a activated CM5 biosensor chip (Cat. No. BR100530, GE Life Sciences). Purified monoclonal antibody candidates were flowed over the chip surface and captured by anti-human IgG antibody. Then a serial dilution of soluble human FGFR2b proteins (his tag, in-house generated) were injected over the antibodies captured surface and changes in surface plasmon resonance signals were analyzed to calculate the association rates (kon) and dissociation rates (koff) by using the one-to-one Langmuir binding model (BIA Evaluation Software, GE Life Sciences). The equilibrium dissociation constant (KD) was calculated as the ratio koff/kon.

Murine FGFR2b OE cells = biological target: T6, Murine FGFR2b OE cells (Mus musculus, UniProt P21803); test: FACS cellular binding, murine FGFR2b OE cells (Example 4)
T6 construct: expressed in transfected cells; host or cells: 293T
Procedure: as §3

T3 sequence (P21802 22-821): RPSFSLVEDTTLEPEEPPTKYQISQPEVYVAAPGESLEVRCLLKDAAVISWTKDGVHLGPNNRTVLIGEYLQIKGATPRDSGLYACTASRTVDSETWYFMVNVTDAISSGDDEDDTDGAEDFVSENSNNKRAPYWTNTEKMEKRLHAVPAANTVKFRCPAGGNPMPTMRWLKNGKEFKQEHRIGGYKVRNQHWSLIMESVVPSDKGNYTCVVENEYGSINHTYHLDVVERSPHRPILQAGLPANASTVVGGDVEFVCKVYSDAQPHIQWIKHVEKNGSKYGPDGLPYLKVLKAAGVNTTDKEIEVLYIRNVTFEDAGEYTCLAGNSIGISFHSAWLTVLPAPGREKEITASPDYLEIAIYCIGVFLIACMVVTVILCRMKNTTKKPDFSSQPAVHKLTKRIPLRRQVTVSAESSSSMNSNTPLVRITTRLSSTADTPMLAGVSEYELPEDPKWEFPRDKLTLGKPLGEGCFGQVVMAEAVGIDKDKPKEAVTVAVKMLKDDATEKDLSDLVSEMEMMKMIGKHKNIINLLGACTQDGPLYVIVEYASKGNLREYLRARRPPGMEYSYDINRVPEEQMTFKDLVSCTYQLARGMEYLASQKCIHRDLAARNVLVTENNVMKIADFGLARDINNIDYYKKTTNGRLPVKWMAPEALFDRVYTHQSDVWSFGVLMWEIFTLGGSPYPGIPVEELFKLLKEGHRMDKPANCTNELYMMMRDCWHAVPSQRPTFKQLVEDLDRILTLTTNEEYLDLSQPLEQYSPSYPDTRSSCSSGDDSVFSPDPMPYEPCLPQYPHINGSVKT
T2 sequence (P21802 22-822 isoform P21802-3 limits assumed): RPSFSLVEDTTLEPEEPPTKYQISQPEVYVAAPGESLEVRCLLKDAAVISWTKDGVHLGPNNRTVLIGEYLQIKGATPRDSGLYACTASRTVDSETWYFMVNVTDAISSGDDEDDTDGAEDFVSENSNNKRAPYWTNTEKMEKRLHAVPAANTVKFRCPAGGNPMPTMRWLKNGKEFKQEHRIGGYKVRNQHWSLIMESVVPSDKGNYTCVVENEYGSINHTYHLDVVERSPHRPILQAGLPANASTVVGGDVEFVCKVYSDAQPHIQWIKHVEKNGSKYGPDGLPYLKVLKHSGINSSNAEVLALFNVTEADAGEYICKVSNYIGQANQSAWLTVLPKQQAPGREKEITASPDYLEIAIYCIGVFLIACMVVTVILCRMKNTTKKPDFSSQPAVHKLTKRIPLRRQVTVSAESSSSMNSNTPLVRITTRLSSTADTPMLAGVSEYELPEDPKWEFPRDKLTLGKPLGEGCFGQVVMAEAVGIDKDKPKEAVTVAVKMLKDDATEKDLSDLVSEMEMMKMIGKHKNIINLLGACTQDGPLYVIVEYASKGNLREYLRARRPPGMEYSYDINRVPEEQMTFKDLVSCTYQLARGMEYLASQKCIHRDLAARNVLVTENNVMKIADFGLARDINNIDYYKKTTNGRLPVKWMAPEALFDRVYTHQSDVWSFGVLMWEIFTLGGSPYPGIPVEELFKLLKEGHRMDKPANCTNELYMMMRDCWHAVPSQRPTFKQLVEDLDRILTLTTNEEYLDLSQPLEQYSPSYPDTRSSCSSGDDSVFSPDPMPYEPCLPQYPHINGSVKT
T5 sequence (P21802 22-378 isoform P21802-3 limits assumed): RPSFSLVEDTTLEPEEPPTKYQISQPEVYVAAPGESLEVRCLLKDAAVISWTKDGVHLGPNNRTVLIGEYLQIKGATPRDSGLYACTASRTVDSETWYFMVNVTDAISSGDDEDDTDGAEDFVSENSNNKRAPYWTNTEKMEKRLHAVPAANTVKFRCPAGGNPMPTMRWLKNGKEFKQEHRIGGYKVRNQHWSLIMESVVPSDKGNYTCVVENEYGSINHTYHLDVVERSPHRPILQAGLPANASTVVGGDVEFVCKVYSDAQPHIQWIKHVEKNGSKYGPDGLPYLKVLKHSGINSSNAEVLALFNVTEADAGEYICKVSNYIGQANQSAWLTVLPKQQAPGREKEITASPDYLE
T1 sequence (P21803 22-707 isoform P21803-2 limits assumed): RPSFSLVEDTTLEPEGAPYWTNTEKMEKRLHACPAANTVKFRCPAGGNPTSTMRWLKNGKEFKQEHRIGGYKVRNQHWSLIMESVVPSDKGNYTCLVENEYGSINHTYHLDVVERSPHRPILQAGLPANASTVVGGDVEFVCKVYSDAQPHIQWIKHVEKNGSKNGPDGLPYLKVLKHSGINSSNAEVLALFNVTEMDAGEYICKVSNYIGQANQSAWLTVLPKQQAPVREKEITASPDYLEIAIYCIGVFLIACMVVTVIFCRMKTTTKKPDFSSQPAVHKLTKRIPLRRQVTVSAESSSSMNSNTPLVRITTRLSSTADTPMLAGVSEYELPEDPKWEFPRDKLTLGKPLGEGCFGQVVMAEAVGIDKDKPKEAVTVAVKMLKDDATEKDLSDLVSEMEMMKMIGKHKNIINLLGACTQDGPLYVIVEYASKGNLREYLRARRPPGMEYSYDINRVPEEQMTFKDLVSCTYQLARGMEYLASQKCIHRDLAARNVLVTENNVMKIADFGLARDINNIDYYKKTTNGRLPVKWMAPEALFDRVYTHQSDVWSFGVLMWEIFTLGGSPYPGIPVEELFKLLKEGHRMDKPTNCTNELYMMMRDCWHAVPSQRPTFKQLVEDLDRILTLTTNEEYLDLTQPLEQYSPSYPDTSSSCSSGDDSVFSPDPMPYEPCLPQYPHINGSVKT
Human FGFR2c OE cells, sequence (P21802 22-821): as the sequence (P21802 22-821) above
T4 sequence (P21802 22-822 isoform P21802-3 limits assumed): as the sequence (P21802 22-822 isoform P21802-3 limits assumed) above
T6 sequence (P21803 22-707 isoform P21803-2 limits assumed): as the sequence (P21803 22-707 isoform P21803-2 limits assumed) above

Molecule	EC50 (Mouse FGFR2b) [nM]	Emax (MFI) (Mouse FGFR2b)	Rmax (human FGFR2b [1]) [RU]	ka (human FGFR2b [1]) [M^−1S^−1]	kd (human FGFR2b [1]) [S^−1]	Kd (human FGFR2b [1]) [nM]	Emax (A450) (Cyno FGFR2b [2])	EC50 (human FGFR2b [3]) [nM]	Emax (MFI) (human FGFR2b [3])	EC50 (human FGFR2b [4]) [nM]	Emax (A450) (human FGFR2b [4])	Emax (A450) (Human FGFR2c [6])	binding to human FGFR2c (Human FGFR2c [6])	ka (Cyno FGFR2b [7]) [M^−1S^−1]	kd (Cyno FGFR2b [7]) [S^−1]	Emax (MFI) (Human FGFR2c [8])	further results
B1	3.37	5194795	85.7	7.63E+04	1.85E−03	24.2	2.996	2.12	3092441	0.0442	2.952	0.116	no detectable binding	7.35E+04	1.80E−03	22634	inhibition of FGF7-induced BaF3_hFGFR2b cell proliferation (BaF3_hFGFR2b OE cells; FGF7 40 ng/ml): potently inhibit; inhibition of FGF10-induced BaF3_hFGFR2b cell proliferation (BaF3_hFGFR2b OE cells; FGF10 40 ng/ml): potently inhibit; FGF7-induced FGFR phosphorylation ([5]; FGF7 10 ng/ml): down-regulation of phosphorylated FGFR; FGF10-induced FGFR phosphorylation ([5]; FGF10 10 ng/ml): down-regulation of phosphorylated FGFR
B2	2.67	5098781	80.9	8.05E+04	3.00E−03	37.3	2.931	2.4	3082608	0.031	2.945	0.130	no detectable binding	7.99E+04	2.72E−03	23848	Human FGFR2c OE cells binding Emax (Human FGFR2c OE cells): 36 MFI; Human FGFR2c binding Emax(OD450) (Human FGFR2c [9]): 0.07 OD450; EC50 (human FGFR2b [10]): 0.26 nM; Human FGFR2b binding Emax(OD450) (human FGFR2b [10]): 3.37 OD450; 293T blank cells binding Emax (293T blank cells): 31 MFI; EC50 (Human FGFR2b OE cells): 1.84 nM; ka ([11]; antibody captured): 76600 M⁻¹ s⁻¹; kd ([11]; antibody captured): 0.00189 s⁻¹; Kd ([11]; koff/kon): 24.7 nM; binding to native human FGFR2c (Human FGFR2c [8]; living Expi293 cells, in words): no detectable binding; EC50 (Murine FGFR2b OE cells): 1.59 nM
